# Measured values published in US20210147504A1 (Bayer, published 2021).
# “And” between values parts separate entries of the source, which are not always exact repeats. Identical values can stand only once.
# T1: human NPRA (human, UniProt P16066 33-1061)
# T1 sequence (looked up): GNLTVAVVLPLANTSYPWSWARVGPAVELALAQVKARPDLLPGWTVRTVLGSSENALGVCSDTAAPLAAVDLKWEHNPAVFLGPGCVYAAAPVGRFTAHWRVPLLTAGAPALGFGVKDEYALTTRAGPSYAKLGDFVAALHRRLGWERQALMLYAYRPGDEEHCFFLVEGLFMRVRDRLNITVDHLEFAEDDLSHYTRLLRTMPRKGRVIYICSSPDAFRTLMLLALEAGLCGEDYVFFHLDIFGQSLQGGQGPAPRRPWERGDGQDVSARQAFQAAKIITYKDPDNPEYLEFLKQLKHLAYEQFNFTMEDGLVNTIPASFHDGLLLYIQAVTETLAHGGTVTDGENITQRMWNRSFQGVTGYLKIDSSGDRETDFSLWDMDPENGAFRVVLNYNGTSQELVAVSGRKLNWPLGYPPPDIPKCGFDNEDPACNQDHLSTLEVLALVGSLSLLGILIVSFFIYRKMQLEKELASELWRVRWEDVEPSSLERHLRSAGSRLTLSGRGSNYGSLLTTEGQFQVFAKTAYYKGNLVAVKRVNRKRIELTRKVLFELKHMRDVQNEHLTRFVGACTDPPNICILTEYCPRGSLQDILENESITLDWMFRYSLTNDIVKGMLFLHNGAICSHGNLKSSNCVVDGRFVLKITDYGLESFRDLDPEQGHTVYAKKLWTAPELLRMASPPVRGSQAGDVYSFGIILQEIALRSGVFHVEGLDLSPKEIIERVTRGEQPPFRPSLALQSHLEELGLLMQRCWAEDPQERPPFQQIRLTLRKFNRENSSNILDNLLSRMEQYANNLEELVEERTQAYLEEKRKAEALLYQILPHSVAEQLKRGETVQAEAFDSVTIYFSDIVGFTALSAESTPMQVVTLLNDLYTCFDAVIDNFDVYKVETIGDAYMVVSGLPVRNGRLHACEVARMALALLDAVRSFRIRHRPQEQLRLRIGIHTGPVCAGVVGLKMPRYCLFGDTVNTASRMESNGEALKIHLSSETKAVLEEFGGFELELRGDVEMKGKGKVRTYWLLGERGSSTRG
# T2: human NPRA (human, UniProt P16066 33-1061)
# T2 sequence (looked up): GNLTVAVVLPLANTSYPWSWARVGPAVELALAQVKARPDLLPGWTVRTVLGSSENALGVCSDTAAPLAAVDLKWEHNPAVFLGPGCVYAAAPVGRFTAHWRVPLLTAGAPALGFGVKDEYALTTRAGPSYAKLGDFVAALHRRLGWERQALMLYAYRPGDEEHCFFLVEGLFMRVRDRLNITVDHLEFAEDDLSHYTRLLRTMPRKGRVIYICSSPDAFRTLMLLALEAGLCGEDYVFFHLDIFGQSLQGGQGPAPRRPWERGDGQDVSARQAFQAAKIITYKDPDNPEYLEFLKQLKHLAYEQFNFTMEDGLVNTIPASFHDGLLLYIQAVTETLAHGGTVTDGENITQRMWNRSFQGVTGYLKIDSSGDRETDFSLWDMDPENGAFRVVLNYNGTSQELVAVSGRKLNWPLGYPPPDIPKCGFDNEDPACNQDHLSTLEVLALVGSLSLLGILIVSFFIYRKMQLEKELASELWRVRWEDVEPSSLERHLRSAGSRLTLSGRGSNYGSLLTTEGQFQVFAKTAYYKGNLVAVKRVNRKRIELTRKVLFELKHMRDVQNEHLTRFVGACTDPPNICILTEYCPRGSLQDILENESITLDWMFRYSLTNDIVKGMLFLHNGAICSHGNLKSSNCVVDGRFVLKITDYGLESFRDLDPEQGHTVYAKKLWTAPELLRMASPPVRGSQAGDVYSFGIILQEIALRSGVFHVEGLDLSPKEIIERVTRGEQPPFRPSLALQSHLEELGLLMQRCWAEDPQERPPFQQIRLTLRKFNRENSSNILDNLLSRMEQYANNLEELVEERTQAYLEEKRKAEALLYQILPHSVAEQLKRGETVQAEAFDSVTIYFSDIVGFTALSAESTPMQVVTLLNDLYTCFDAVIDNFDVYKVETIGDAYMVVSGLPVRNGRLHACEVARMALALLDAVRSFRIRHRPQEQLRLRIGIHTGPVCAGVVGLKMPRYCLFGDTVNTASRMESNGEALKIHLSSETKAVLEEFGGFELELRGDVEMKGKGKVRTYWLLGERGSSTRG
# How the values were obtained:
# [1] = molecular target: T1, human NPRA; assay: cell-based or functional assay
# [2] = molecular target: T2, human NPRA; assay: cell-based or functional assay; remark: listed apart in the source
binder,measurement,setting,value
"TPP-10847 (antibody, human IgG1, lambda) heavy: not shown light: QSVLTQPPSVSGAPGQRVTISCTGSSSNIGAGYDVHWYQQLPGTAPKLLIYGNSNRPSGVPDRFSGSKSGTSASLAITGLQAEDEADYYCQSYDSSLSGVVFGGGTKLTVLGQPKAAPSVTLFPPSSEELQANKATLVCLISDFYPGAVTVAWKADSSPVKAGVETTTPSKQSNNKYAASSYLSLTPEQWKSHRSYSCQVTHEGSTVEKTVAPTECS",average rel logEC50,[1],-0.5 log vs TPP-5661
same,rel. logEC50 pcs 5,[1],0 log vs TPP-5661
same,rel. logEC50 pcs 6,[1],-0.9 log vs TPP-5661
TPP-13230 (antibody) heavy: not shown light: QSVLTQPPSVSGAPGQRVTISCTGSSSNIGAGYDVHWYQQLPGTAPKLLIYGNSNRPSGVPDRFSGSKSGTSASLAITGLQAEDEADYYCQSYDSSLSGVVFGGGTKLTVLGQPKAAPSVTLFPPSSEELQANKATLVCLISDFYPGAVTVAWKADSSPVKAGVETTTPSKQSNNKYAASSYLSLTPEQWKSHRSYSCQVTHEGSTVEKTVAPTECS,average rel logEC50,[2],-0.3 log vs TPP-5661
same,rel. logEC50 pcs 9,[2],-0.3 log vs TPP-5661
"TPP-10283 (antibody, human IgG1, lambda) heavy: not shown light: QSVLTQPPSVSGAPGQRVTISCTGSSSNIGAGYDVHWYQQLPGTAPKLLIYGNSNRPSGVPDRFSGSKSGTSASLAITGLQAEDEADYYCQSYDSSLSGVVFGGGTKLTVLGQPKAAPSVTLFPPSSEELQANKATLVCLISDFYPGAVTVAWKADSSPVKAGVETTTPSKQSNNKYAASSYLSLTPEQWKSHRSYSCQVTHEGSTVEKTVAPTECS",activity rcs,[1],83%
same,average rel logEC50,[1],-0.8 log vs TPP-5661
same,rel. activity rcs,[1],-0.8 log vs TPP-5661
same,rel. logEC50 pcs 5,[1],-0.8 log vs TPP-5661
"TPP-10845 (antibody, human IgG1, lambda) heavy: not shown light: QSVLTQPPSVSGAPGQRVTISCTGSSSNIGAGYDVHWYQQLPGTAPKLLIYGNSNRPSGVPDRFSGSKSGTSASLAITGLQAEDEADYYCQSYDSSLSGVVFGGGTKLTVLGQPKAAPSVTLFPPSSEELQANKATLVCLISDFYPGAVTVAWKADSSPVKAGVETTTPSKQSNNKYAASSYLSLTPEQWKSHRSYSCQVTHEGSTVEKTVAPTECS",activity rcs,[1],67%
same,average rel logEC50,[1],-0.6 log vs TPP-5661
same,rel. logEC50 pcs 5,[1],-0.4 log vs TPP-5661
same,rel. logEC50 pcs 6,[1],-0.8 log vs TPP-5661
"TPP-13054 (antibody, human IgG1, lambda) heavy: not shown light: QSVLTQPPSVSGAPGQRVTISCTGSSSNIGAGYDVHWYQQLPGTAPKLLIYGNSNRPSGVPDRFSGSKSGTSASLAITGLQAEDEADYYCQSYDSSLSGVVFGGGTKLTVLGQPKAAPSVTLFPPSSEELQANKATLVCLISDFYPGAVTVAWKADSSPVKAGVETTTPSKQSNNKYAASSYLSLTPEQWKSHRSYSCQVTHEGSTVEKTVAPTECS",average rel logEC50,[1],-0.8 log vs TPP-5661
same,rel. logEC50* pcs,[1],-0.7 log vs TPP-5661 and -0.8 log vs TPP-5661
TPP-10290 (antibody) heavy: not shown light: QSVLTQPPSVSGAPGQRVTISCTGSSSNIGAGYDVHWYQQLPGTAPKLLIYGNSNRPSGVPDRFSGSKSGTSASLAITGLQAEDEADYYCQSYDSSLSGVVFGGGTKLTVLGQPKAAPSVTLFPPSSEELQANKATLVCLISDFYPGAVTVAWKADSSPVKAGVETTTPSKQSNNKYAASSYLSLTPEQWKSHRSYSCQVTHEGSTVEKTVAPTECS,activity rcs,[2],84%
same,average rel logEC50,[2],-0.5 log vs TPP-5661
same,rel. logEC50 pcs 2,[2],-0.8 log vs TPP-5661
same,rel. logEC50 pcs 3,[2],-0.1 log vs TPP-5661
"TPP-10361 (antibody, human IgG1, lambda) heavy: not shown light: QSVLTQPPSVSGAPGQRVTISCTGSSSNIGAGYDVHWYQQLPGTAPKLLIYGSGSGSGSGSGSPDGGSGGSLRRSSCFGGRMDRIGAQSGLGCNSFRYGSYGSGGSGSGSGNRPSGVPDRFSGSKSGTSASLAITGLQAEDEADYYCQSYDSSLSGVVFGGGTKLTVLGQPKAAPSVTLFPPSSEELQANKATLVCLISDFYPGAVTVAWKADSSPVKAGVETTTPSKQSNNKYAASSYLSLTPEQWKSHRSYSCQVTHEGSTVEKTVAPTECS",activity rcs,[2],20%
same,average rel logEC50,[2],-0.1 log vs TPP-5661
same,rel. activity rcs,[2],-0.1 log vs TPP-5661
same,rel. logEC50 pcs 5,[2],-0.1 log vs TPP-5661
